Data taken from US20040167319A1 (Genmab, published 2004).
Bridges are numbered along the chain shown (N, C = ends). Where no end group is shown, it is not given here. minicard = not defined here

How the values were obtained:
[1] = target: T1, EPANPSEK of the second extracellular loop of human CD20 (human); test: Pepscan ELISA
T1 construct: not a peptide made as such
T1 peptide: EPANPSEK
Procedure: (§1) Pepscan ELISA-assay: The 455-well credit card-format polyethylene cards, containing the covalently linked peptides, were incubated with serum (diluted 1:1000 in blocking solution which contains 5% horse serum (v/v) and 5% ovalbumin (w/v)) (4° C., over night). After washing, the peptides were incubated with anti-human antibody peroxidase (dilution 1:1000, 1 hour, 25° C.), and after washing the peroxidase substrate, 2,2′-azino-di-3-ethylbenzthiazolin sulfonate and 2 μl/ml 3% H₂O₂ were added. After one hour, the color development was measured. The color development of the ELISA was quantified with a CCD-camera and an image processing system. The set up consists of a CCD-camera and a 55 mm lens (Sony CCD Video Camera XC-77RR, Nikon micro-nikk or 55 mm f/2.8 lens), a camera adaptor (Sony Camera adaptor DC-77RR) and the Image Processing Software package Optimas, version 6.5 (Media Cybernetics, Silver Spring, Md. 20910, U.S.A.). Optimas runs on a pentium II computer system.

[2] = target: T2, KMESCNFIRACTPYI (linker 5-11 via 1,3‑bis(bromomethyl)‑benzene (inferred); reading uncertain); test: Pepscan ELISA, 10 µg/ml
T2 construct: 15-mer looped Pepscan peptide derived from human CD20, Cys put in at two positions
T2 peptide: Ac-KMESCNFIRACTPYI-minicard
Text: (§2) In some cases chemical linkage of the legs of a 15-mer peptide helps to identify amino acid sequences of a potentially discontinuous epitope. […] The 9- and 15-mers were synthesized as loops and screened using credit-card format mini-PEPSCAN cards (455 peptide format/card). In all looped peptides amino acids at varied positions were replaced by a cysteine (e.g., acetyl-XCXXXXXXXXCX-minicard). The peptides were synthesized using standard Fmoc-chemistry and deprotected using TFA with scavengers. Subsequently, the deprotected peptides were reacted on the microarray with an 0.5 mM solution of 1,3-bis(bromomethyl)-benzene in ammonium bicarbonate (20 mM, pH 7.9), supplemented with acetonitrile (1:1 (v/v)). The microarrays were gently shaken in the solution for 30-60 min, while completely covered in the solution. Finally, the microarrays were washed extensively with excess of Millipore H₂O and sonicated in disrupt-buffer containing 1% sodium dodecylsulfate, 0.1% β-mercaptoethanol, in PBS (pH 7.2) at 70° C. for 30 min, followed by sonication in millipore H₂O for another 45 min. Subsequently, the microwells were ready for screening in an ELISA-assay.
(§3) […] After washing, the peptides were incubated with anti-human antibody peroxidase (dilution 1:1000, 1 hour, 25° C.), and after washing the peroxidase substrate, 2,2′-azino-di-3-ethylbenzthiazolin sulfonate and 2 μl/ml 3% H₂O₂ were added. After one hour, the color development was measured. The color development of the ELISA was quantified with a CCD-camera and an image processing system.

[3] = target: T3, KMECLNFIRAHCPYI (linker 4-12 via 1,3‑bis(bromomethyl)‑benzene (inferred); reading uncertain); test: Pepscan ELISA, 100 µg/ml
T3 construct: 15-mer looped Pepscan peptide derived from human CD20, Cys put in at two positions
T3 peptide: Ac-KMECLNFIRAHCPYI-minicard
Text: as §2, §3

[4] = target: T4, LKMECLNFIRCHTPY (linker 5-11 via 1,3‑bis(bromomethyl)‑benzene (inferred); reading uncertain); test: Pepscan ELISA, 100 µg/ml
T4 construct: 15-mer looped Pepscan peptide derived from human CD20, Cys put in at two positions
T4 peptide: Ac-LKMECLNFIRCHTPY-minicard
Text: as §2, §3

[5] = target: T2, KMESCNFIRACTPYI; test: Pepscan ELISA, 100 µg/ml
Text: as §2, §3

[6] = target: T5, MESLCFIRAHCPYIN (linker 5-11 via 1,3‑bis(bromomethyl)‑benzene (inferred); reading uncertain); test: Pepscan ELISA, 100 µg/ml
T5 construct: 15-mer looped Pepscan peptide derived from human CD20, Cys put in at two positions
T5 peptide: Ac-MESLCFIRAHCPYIN-minicard
Text: as §2, §3

[7] = target: T6, CFIRAHTPC (linker 1-9 via 1,3‑bis(bromomethyl)‑benzene (inferred); not fully specified (C-terminus); also: covalently linked to minicard); test: Pepscan ELISA, 100 µg/ml
T6 construct: 9-mer looped Pepscan peptide derived from human CD20
T6 peptide: CFIRAHTPC
Text: as §2, §3

[8] = target: T7, CIRAHTPYC (linker 1-9 via 1,3‑bis(bromomethyl)‑benzene (inferred); not fully specified (C-terminus); also: covalently linked to minicard); test: Pepscan ELISA, 100 µg/ml
T7 construct: 9-mer looped Pepscan peptide derived from human CD20
T7 peptide: CIRAHTPYC
Text: as §2, §3

[9] = target: T8, CRAHTPYIC (linker 1-9 via 1,3‑bis(bromomethyl)‑benzene (inferred); not fully specified (C-terminus); also: covalently linked to minicard); test: Pepscan ELISA, 100 µg/ml
T8 construct: 9-mer looped Pepscan peptide derived from human CD20
T8 peptide: CRAHTPYIC
Text: as §2, §3

[10] = target: T9, CAHTPYINC (linker 1-9 via 1,3‑bis(bromomethyl)‑benzene (inferred); not fully specified (C-terminus); also: covalently linked to minicard); test: Pepscan ELISA, 100 µg/ml
T9 construct: 9-mer looped Pepscan peptide derived from human CD20
T9 peptide: CAHTPYINC
Text: as §2, §3

[11] = target: T10, IPAGIYA (also: covalently linked to polyethylene card); test: Pepscan ELISA, 100 µg/ml
T10 construct: 7-mer Pepscan peptide derived from human CD20
T10 peptide: IPAGIYA
Text: as §2, §3

[12] = target: T11, PAGIYAP (also: covalently linked to polyethylene card); test: Pepscan ELISA, 100 µg/ml
T11 construct: 7-mer Pepscan peptide derived from human CD20
T11 peptide: PAGIYAP
Text: as §2, §3

[13] = target: T12, AGIYAPI (also: covalently linked to polyethylene card); test: Pepscan ELISA, 100 µg/ml
T12 construct: 7-mer Pepscan peptide derived from human CD20
T12 peptide: AGIYAPI
Text: as §2, §3

[14] = target: T13, GIYAPIC (also: covalently linked to polyethylene card); test: Pepscan ELISA, 100 µg/ml
T13 construct: 7-mer Pepscan peptide derived from human CD20
T13 peptide: GIYAPIC
Text: as §2, §3

[15] = target: T14, IYAPICV (also: covalently linked to polyethylene card); test: Pepscan ELISA, 100 µg/ml
T14 construct: 7-mer Pepscan peptide derived from human CD20
T14 peptide: IYAPICV
Text: as §2, §3

[16] = target: T15, GIYAPIA (also: covalently linked to polyethylene card); test: Pepscan ELISA, 100 µg/ml
T15 construct: 7-mer Pepscan peptide derived from human CD20 (A in place of the C of GIYAPIC)
T15 peptide: GIYAPIA
Text: as §2, §3

[17] = target: T16, IYAPIAV (also: covalently linked to polyethylene card); test: Pepscan ELISA, 100 µg/ml
T16 construct: 7-mer Pepscan peptide derived from human CD20 (A in place of the C of IYAPICV)
T16 peptide: IYAPIAV
Text: as §2, §3

[18] = target: T17, AGIYAP of the small first extracellular loop of human CD20 (human); test: Pepscan ELISA
T17 construct: not a peptide made as such
T17 peptide: AGIYAP
Procedure: as §1

[19] = target: T18, MESLNFIRAHTPYI of the second extracellular loop of human CD20 (human); test: Pepscan ELISA
T18 construct: not a peptide made as such
T18 peptide: MESLNFIRAHTPYI
Procedure: as §1

B1: 11B8 (antibody, IgG3, V domains shown)
VH: EVQLVQSGGGLVHPGGSLRLSCTGSGFTFSYHAMHWVRQAPGKGLEWVSIIGTGGVTYYADSVKGRFTISRDNVKNSLYLQMNSLRAEDMAVYYCARDYYGAGSFYDGLYGMDVWGQGTTVTVSS
VL: EIVLTQSPATLSLSPGERATLSCRASQSVSSYLAWYQQKPGQAPRLLIYDASNRATGIPARFSGSGSGTDFTLTISSLEPEDFAVYYCQQRSDWPLTFGGGTKVEIK
notes: Human monoclonal IgG3,κ from hybridoma
- binding result [1]: no binding (tested: 10 µg/ml)
- OD (absorbance) [2]: 625 OD
- OD (absorbance) [3]: 3000 OD
- OD (absorbance) [4]: 738 OD
- OD (absorbance) [5]: 3090 OD
- OD (absorbance) [6]: 956 OD
- OD (absorbance) [7]: 534 OD
- OD (absorbance) [8]: 449 OD
- OD (absorbance) [9]: 1600 OD
- OD (absorbance) [10]: 452 OD
- OD (absorbance) [11]: 950 OD
- OD (absorbance) [12]: 2500 OD
- OD (absorbance) [13]: 2210 OD
- OD (absorbance) [14]: 251 OD
- OD (absorbance) [15]: 313 OD
- OD (absorbance) [16]: 857 OD
- OD (absorbance) [17]: 654 OD

B2: 7D8 (antibody, IgG1, V domains shown)
VH: EVQLVESGGGLVQPDRSLRLSCAASGFTFHDYAMHWVRQAPGKGLEWVSTISWNSGTIGYADSVKGRFTISRDNAKNSLYLQMNSLRAEDTALYYCAKDIQYGNYYYGMDVWGQGTTVTVSS
VL: EIVLTQSPATLSLSPGERATLSCRASQSVSSYLAWYQQKPGQAPRLLIYDASNRATGIPARFSGSGSGTDFTLTISSLEPEDFAVYYCQQRSNWPITFGQGTRLEIK
notes: Human monoclonal IgG1,κ from hybridoma
- binding result [18]: no binding (tested: 100 µg/ml)
- binding result [19]: no binding (tested: 100 µg/ml)
- binding result [1]: no binding (tested: 10 µg/ml)
- OD (absorbance) [2]: 142 OD
- OD (absorbance) [3]: 41 OD
- OD (absorbance) [4]: 41 OD
- OD (absorbance) [5]: 52 OD
- OD (absorbance) [6]: 55 OD
- OD (absorbance) [7]: 69 OD
- OD (absorbance) [8]: 60 OD
- OD (absorbance) [9]: 64 OD
- OD (absorbance) [10]: 65 OD
- OD (absorbance) [12]: 64 OD
- OD (absorbance) [13]: 73 OD
- OD (absorbance) [14]: 64 OD
- OD (absorbance) [15]: 58 OD
- OD (absorbance) [16]: 96 OD
- OD (absorbance) [17]: 58 OD

B3: 2F2 (antibody, V domains shown)
VH: EVQLVESGGGLVQPGRSLRLSCAASGFTFNDYAMHWVRQAPGKGLEWVSTISWNSGSIGYADSVKGRFTISRDNAKKSLYLQMNSLRAEDTALYYCAKDIQYGNYYYGMDVWGQGTTVTVSS
VL: EIVLTQSPATLSLSPGERATLSCRASQSVSSYLAWYQQKPGQAPRLLIYDASNRATGIPARFSGSGSGTDFTLTISSLEPEDFAVYYCQQRSNWPITFGQGTRLEIK
modifications: FITC- or 125I-labelled in some assays; F(ab')2 fragments in some; the letters do not carry this
notes: Human monoclonal IgG1,κ from hybridoma; also called 4C9; HuMab 2F2 (hybridoma-derived)
- OD (absorbance) [2]: 39 OD
- OD (absorbance) [3]: 66 OD
- OD (absorbance) [4]: 87 OD
- OD (absorbance) [5]: 78 OD
- OD (absorbance) [6]: 65 OD
- OD (absorbance) [7]: 114 OD
- OD (absorbance) [8]: 92 OD
- OD (absorbance) [9]: 87 OD
- OD (absorbance) [10]: 106 OD
- OD (absorbance) [11]: 85 OD
- OD (absorbance) [12]: 85 OD
- OD (absorbance) [13]: 98 OD
- OD (absorbance) [14]: 93 OD
- OD (absorbance) [15]: 99 OD
- OD (absorbance) [16]: 96 OD
- OD (absorbance) [17]: 76 OD
